pKd: −log10 of the molar value.
Key:
[1] = target: HLA-A*24:03; test: IEDB peptide-MHC binding, purified MHC/direct/fluorescence; filed as Kd, often an IC50 or EC50 that approximates it; ≥ and ≤ were set here for values at or beyond the usual limits of such assays; conditions: source organism: Listeria monocytogenes
[2] = target: HLA-B*15:01; test: IEDB peptide-MHC binding, purified MHC/competitive/radioactivity; filed as Kd, often an IC50 or EC50 that approximates it; ≥ and ≤ were set here for values at or beyond the usual limits of such assays
[3] = target: HLA-A*26:01; test: as above; conditions: source organism: Dengue virus 4 Philippines/H241/1956
[4] = target: HLA-A*01:01; test: as above; conditions: source organism: Dengue virus 4 Philippines/H241/1956
[5] = target: HLA-A*30:02; test: as above
[6] = target: HLA-B*51:01; test: as above
[7] = target: HLA-B*07:02; test: as above
[8] = target: HLA-B*54:01; test: as above
[9] = target: HLA-B*35:01; test: as above
[10] = target: HLA-B*53:01; test: as above
[11] = target: HLA-A*68:02; test: as above
[12] = target: HLA-A*24:02; test: as above; conditions: source organism: Dengue virus 2 Jamaica/1409/1983
[13] = target: HLA-A*23:01; test: as above; conditions: source organism: Dengue virus 2 Jamaica/1409/1983
[14] = target: HLA-B*15:01; test: IEDB peptide-MHC binding, purified MHC/competitive/fluorescence; filed as Kd, often an IC50 or EC50 that approximates it; ≥ and ≤ were set here for values at or beyond the usual limits of such assays; conditions: source organism: Kurkino virus
[15] = target: HLA-A*02:02; test: IEDB peptide-MHC binding, purified MHC/competitive/radioactivity; filed as Kd, often an IC50 or EC50 that approximates it; ≥ and ≤ were set here for values at or beyond the usual limits of such assays; conditions: source organism: Homo sapiens
[16] = target: HLA-A*68:01; test: as above; conditions: source organism: Vaccinia virus WR
[17] = target: HLA-A*31:01; test: as above
[18] = target: HLA-A*11:01; test: as above; conditions: source organism: Vaccinia virus WR
[19] = target: HLA-A*03:01; test: as above
[20] = target: HLA-A*33:01; test: as above
[21] = target: HLA-B*51:01; test: IEDB peptide-MHC binding, purified MHC/competitive/fluorescence; filed as Kd, often an IC50 or EC50 that approximates it; ≥ and ≤ were set here for values at or beyond the usual limits of such assays; conditions: source organism: Yersinia pestis Nepal516
[22] = target: HLA-B*08:01; test: IEDB peptide-MHC binding, purified MHC/competitive/radioactivity; filed as Kd, often an IC50 or EC50 that approximates it; ≥ and ≤ were set here for values at or beyond the usual limits of such assays; conditions: source organism: Dengue virus 4 Philippines/H241/1956
[23] = source organism: Dengue virus 4 Philippines/H241/1956
[24] = source organism: Dengue virus 2 Jamaica/1409/1983
[25] = source organism: Mammarenavirus choriomeningitidis
[26] = source organism: Vaccinia virus WR
[27] = source organism: Lymphocytic choriomeningitis virus (strain Armstrong)
[28] = source organism: Mammarenavirus brazilense

## AFMRFDDQF
[1]
  pKd: ≥ 9.00

## ALITVSGLY
[2]; [23]
  pKd: 8.65
[3]
  pKd: 6.25
[4]
  pKd: 5.09
[5]; [23]
  pKd: 9.17

## ALLLLVAHY
[2]; [24]
  pKd: 7.30
[5]; [24]
  pKd: ≤ 4.11

## ALMVIGMAM
[2]; [23]
  pKd: 8.58

## CPFLFLMLL
[6]; [25]
  pKd: ≤ 4.34
[7]; [25]
  pKd: ≤ 4.11
[8]; [25]
  pKd: 6.85
[9]; [25]
  pKd: 5.85
[10]; [25]
  pKd: 5.68

## DPEKFNARMA
[6]; [26]
  pKd: ≤ 4.39
[7]; [26]
  pKd: ≤ 4.27
[8]; [26]
  pKd: 6.00
[9]; [26]
  pKd: ≤ 4.16
[10]; [26]
  pKd: ≤ 4.35

## DPQNAAVNV
[6]; [26]
  pKd: 5.90
[7]; [26]
  pKd: ≤ 4.11
[8]; [26]
  pKd: ≤ 4.49
[9]; [26]
  pKd: ≤ 4.11
[10]; [26]
  pKd: ≤ 4.43

## DTVTYKCPHI
[11]; source organism: Dengue virus 3 Martinique/1243/1999
  pKd: 7.05

## EIYTYFSHC
[2]; [26]
  pKd: 6.03

## EPLSPDTCLL
[6]; [26]
  pKd: ≤ 4.16
[7]; [26]
  pKd: ≤ 4.22
[8]; [26]
  pKd: ≤ 4.21
[9]; [26]
  pKd: 6.55
[10]; [26]
  pKd: 6.54

## EPVVKDKIKL
[6]; [26]
  pKd: ≤ 4.16
[7]; [26]
  pKd: ≤ 4.50
[8]; [26]
  pKd: ≤ 4.37
[9]; [26]
  pKd: ≤ 4.16
[10]; [26]
  pKd: ≤ 4.27

## ESPARLASAI
[3]
  pKd: 5.35
[11]; [23]
  pKd: 6.30

## ETNMITLLV
[3]
  pKd: 6.47
[4]
  pKd: 6.68
[11]; [23]
  pKd: 8.14

## EVEDYGFGV
[11]; [24]
  pKd: 8.15

## FAPSYSAEM
[2]; [26]
  pKd: 6.34

## FMALVAFLRF
[2]; [24]
  pKd: 6.64
[9]; [24]
  pKd: 7.16
[10]; [24]
  pKd: 6.00
[12]
  pKd: ≤ 4.55
[13]
  pKd: 5.60

## FQTLTSCTF
[14]
  pKd: 7.45

## HPIMYYTKF
[6]; [27]
  pKd: 5.80
[7]; [27]
  pKd: 6.87
[8]; [27]
  pKd: 5.42
[9]; [27]
  pKd: 7.75
[10]; [27]
  pKd: 7.84

## IPGDILSII
[6]; [26]
  pKd: 9.34
[7]; [26]
  pKd: 7.36
[8]; [26]
  pKd: 6.43
[9]; [26]
  pKd: 6.58
[10]; [26]
  pKd: 7.56

## KLREYEAAL
[15]
  pKd: 7.56
[11]; source organism: Homo sapiens
  pKd: ≤ 4.55

## LLHCVTESY
[16]
  pKd: 4.91
[17]; [26]
  pKd: 4.90
[18]
  pKd: 5.08
[2]; [26]
  pKd: 8.98
[19]; [26]
  pKd: 5.41
[20]; [26]
  pKd: ≤ 4.58

## LPDALLFTL
[6]; [28]
  pKd: 5.48
[7]; [28]
  pKd: 6.70
[8]; [28]
  pKd: 5.54
[9]; [28]
  pKd: 7.88
[10]; [28]
  pKd: 7.84

## LPHIIDEVM
[6]; [25]
  pKd: 5.03
[7]; [25]
  pKd: 6.81
[8]; [25]
  pKd: 5.05
[9]; [25]
  pKd: 7.82
[10]; [25]
  pKd: 6.07

## LPWLIFIQI
[21]
  pKd: 5.77

## LPYVGDTSMM
[6]; [26]
  pKd: 5.52
[7]; [26]
  pKd: 6.08
[8]; [26]
  pKd: ≤ 4.16
[9]; [26]
  pKd: 6.09
[10]; [26]
  pKd: 5.07

## LSRVFFCVY
[2]; [26]
  pKd: 8.54

## LTASLVMLLV
[11]; source organism: Dengue virus 4 Dominica/814669/1981
  pKd: 7.52

## LTYQNKVVRV
[11]; [24]
  pKd: 7.55

## MIIMDEAHF
[2]; source organism: Dengue virus 1 Brazil/97-11/1997
  pKd: 7.73

## MLLNRFTTR
[17]; [23]
  pKd: 8.82
[19]; [23]
  pKd: 7.92
[22]
  pKd: 5.61
[20]; [23]
  pKd: 7.83
